B1: Twister Ribozyme (parent)
chain: AACACUGCCAAUGCCGGUCCCAAGCCCGGAUAAAAGUGGAGGGGGCGG

Variants of: B1
Assay: self-cleavage, relative activity (ratio to wild type); higher = more cleavage; co-transcriptional

Compared with AACACUGCCAAUGCCGGUCCCAAGCCCGGAUAAAAGUGCAGGGGGCGG [G39C], AACACUGCCAAUGCCGGUCCCAAGCCCGGAUAAAAGUGCAGGGGGAGG [G39C C46A] is lower in self-cleavage: 0.158 for the first, 0.13 for the second.

First: AACACUGCCAAUGCCGGUCCCAAGCCCGGAUAAAAGUGCAGGGGGGGG [G39C C46G]
Second: AACACUGCCAAUGCCGGUCCCAAGCCCGGAUAAAAGUGCAUGGGGCGG [G39C G41U]
The self-cleavage of the first is higher: 0.126 for the first, 0.122 for the second.

Compared with AACACUGCCAAUGCCGGUCCCAAGCCCGGAUAAAAGUGCAGAGGGCGG [G39C G42A], AACACUGCCAAUGCCGGUCCCAAGCCCGGAUAAAAGUGCAGCGGGCGG [G39C G42C] is lower in self-cleavage: 0.148 for the first, 0.129 for the second.

Compared with AACACUGCCAAUGCCGGUCCCAAGCCCGGAUAAAAGUGCAGUGGGCGG [G39C G42U], AACACUGCCAAUGCCGGUCCCAAGCCCGGAUAAAAGUGCAGGCGGCGG [G39C G43C] is lower in self-cleavage: 0.144 for the first, 0.0898 for the second.

Compared with AACACUGCCAAUGCCGGUCCCAAGCCCGGAUAAAAGUGCAGGUGGCGG [G39C G43U], AACACUGCCAAUGCCGGUCCCAAGCCCGGAUAAAAGUGCAGGGUGCGG [G39C G44U] is higher in self-cleavage: 0.112 for the first, 0.169 for the second.

Going from AACACUGCCAAUGCCGGUCCCAAGCCCGGAUAAAAGUGCAGGGGGCCG [G39C G47C] to AACACUGCCAAUGCCGGUCCCAAGCCCGGAUAAAAGUGCAGGGGGCUG [G39C G47U], the self-cleavage falls from 0.167 to 0.163.

First: AACACUGCCAAUGCCGGUCCCAAGCCCGGAUAAAAGUGCAGGGGGCGC [G39C G48C]
Second: AACACUGCCAAUGCCGGUCCCAAGCCCGGAUAAAAGUGCAGGGGGCGU [G39C G48U]
The self-cleavage of the first is lower: 0.161 for the first, 0.198 for the second.

First: AACACUGCCAAUGCCGGUCCCAAGCCCGGAUAAAAGUGUAGGGGGCGG [G39U]
Second: AACACUGCCAAUGCCGGUCCCAAGCCCGGAUAAAAGUGUCGGGGGCGG [G39U A40C]
The self-cleavage of the first is higher: 0.232 for the first, 0.134 for the second.

Going from AACACUGCCAAUGCCGGUCCCAAGCCCGGAUAAAAGUGUGGGGGGCGG [G39U A40G] to AACACUGCCAAUGCCGGUCCCAAGCCCGGAUAAAAGUGUUGGGGGCGG [G39U A40U], the self-cleavage rises from 0.128 to 0.158.

First: AACACUGCCAAUGCCGGUCCCAAGCCCGGAUAAAAGUGUAGGGGGAGG [G39U C46A]
Second: AACACUGCCAAUGCCGGUCCCAAGCCCGGAUAAAAGUGUAGGGGGGGG [G39U C46G]
The self-cleavage of the first is higher: 0.19 for the first, 0.172 for the second.

First: AACACUGCCAAUGCCGGUCCCAAGCCCGGAUAAAAGUGUAGGGGGUGG [G39U C46U]
Second: AACACUGCCAAUGCCGGUCCCAAGCCCGGAUAAAAGUGUAGCGGGCGG [G39U G42C]
The self-cleavage of the first is higher: 0.23 for the first, 0.133 for the second.

First: AACACUGCCAAUGCCGGUCCCAAGCCCGGAUAAAAGUGUAGGAGGCGG [G39U G43A]
Second: AACACUGCCAAUGCCGGUCCCAAGCCCGGAUAAAAGUGUAGGCGGCGG [G39U G43C]
The self-cleavage of the first is higher: 0.138 for the first, 0.132 for the second.

Going from AACACUGCCAAUGCCGGUCCCAAGCCCGGAUAAAAGUGUAGGGAGCGG [G39U G44A] to AACACUGCCAAUGCCGGUCCCAAGCCCGGAUAAAAGUGUAGGGCGCGG [G39U G44C], the self-cleavage rises from 0.15 to 0.155.

First: AACACUGCCAAUGCCGGUCCCAAGCCCGGAUAAAAGUGUAGGGGACGG [G39U G45A]
Second: AACACUGCCAAUGCCGGUCCCAAGCCCGGAUAAAAGUGUAGGGGUCGG [G39U G45U]
The self-cleavage of the first is higher: 0.151 for the first, 0.141 for the second.

Compared with AACACUGCCAAUGCCGGUCCCAAGCCCGGAUAAAAGUGUAGGGGGCUG [G39U G47U], AACACUGCCAAUGCCGGUCCCAAGCCCGGAUAAAAGUGUAGGGGGCGA [G39U G48A] is lower in self-cleavage: 0.187 for the first, 0.156 for the second.

Going from AACACUGCCAAUGCCGGUCCCAAGCCCGGAUAAAAGUGUAGGGGGCGC [G39U G48C] to AACACUGCCAAUGCCGGUCCCAAGCCCGGAUAAAAGUGGCGGGGGAGG [A40C C46A], the self-cleavage falls from 0.265 to 0.202.

Compared with AACACUGCCAAUGCCGGUCCCAAGCCCGGAUAAAAGUGGCCGGGGCGG [A40C G41C], AACACUGCCAAUGCCGGUCCCAAGCCCGGAUAAAAGUGGCGAGGGCGG [A40C G42A] is higher in self-cleavage: 0.15 for the first, 0.152 for the second.

Compared with AACACUGCCAAUGCCGGUCCCAAGCCCGGAUAAAAGUGGCGUGGGCGG [A40C G42U], AACACUGCCAAUGCCGGUCCCAAGCCCGGAUAAAAGUGGCGGAGGCGG [A40C G43A] is lower in self-cleavage: 0.139 for the first, 0.138 for the second.

First: AACACUGCCAAUGCCGGUCCCAAGCCCGGAUAAAAGUGGCGGUGGCGG [A40C G43U]
Second: AACACUGCCAAUGCCGGUCCCAAGCCCGGAUAAAAGUGGCGGGCGCGG [A40C G44C]
The self-cleavage of the first is lower: 0.136 for the first, 0.226 for the second.

First: AACACUGCCAAUGCCGGUCCCAAGCCCGGAUAAAAGUGGCGGGGACGG [A40C G45A]
Second: AACACUGCCAAUGCCGGUCCCAAGCCCGGAUAAAAGUGGCGGGGCCGG [A40C G45C]
The self-cleavage of the first is higher: 0.23 for the first, 0.154 for the second.

Compared with AACACUGCCAAUGCCGGUCCCAAGCCCGGAUAAAAGUGGCGGGGUCGG [A40C G45U], AACACUGCCAAUGCCGGUCCCAAGCCCGGAUAAAAGUGGCGGGGGCUG [A40C G47U] is higher in self-cleavage: 0.171 for the first, 0.228 for the second.

Compared with AACACUGCCAAUGCCGGUCCCAAGCCCGGAUAAAAGUGGCGGGGGCGA [A40C G48A], AACACUGCCAAUGCCGGUCCCAAGCCCGGAUAAAAGUGGCGGGGGCGU [A40C G48U] is higher in self-cleavage: 0.192 for the first, 0.284 for the second.

Going from AACACUGCCAAUGCCGGUCCCAAGCCCGGAUAAAAGUGGGGGGGGGGG [A40G C46G] to AACACUGCCAAUGCCGGUCCCAAGCCCGGAUAAAAGUGGGUGGGGCGG [A40G G41U], the self-cleavage falls from 0.184 to 0.166.

Going from AACACUGCCAAUGCCGGUCCCAAGCCCGGAUAAAAGUGGGGAGGGCGG [A40G G42A] to AACACUGCCAAUGCCGGUCCCAAGCCCGGAUAAAAGUGGGGCGGGCGG [A40G G42C], the self-cleavage rises from 0.113 to 0.215.

Compared with AACACUGCCAAUGCCGGUCCCAAGCCCGGAUAAAAGUGGGGGCGGCGG [A40G G43C], AACACUGCCAAUGCCGGUCCCAAGCCCGGAUAAAAGUGGGGGUGGCGG [A40G G43U] is higher in self-cleavage: 0.135 for the first, 0.136 for the second.

First: AACACUGCCAAUGCCGGUCCCAAGCCCGGAUAAAAGUGGGGGGAGCGG [A40G G44A]
Second: AACACUGCCAAUGCCGGUCCCAAGCCCGGAUAAAAGUGGGGGGGACGG [A40G G45A]
The self-cleavage of the first is higher: 0.157 for the first, 0.146 for the second.

First: AACACUGCCAAUGCCGGUCCCAAGCCCGGAUAAAAGUGGGGGGGGCAG [A40G G47A]
Second: AACACUGCCAAUGCCGGUCCCAAGCCCGGAUAAAAGUGGGGGGGGCCG [A40G G47C]
The self-cleavage of the first is lower: 0.102 for the first, 0.192 for the second.
